Residue numbers refer to the chain shown, from its start.
What was measured:
Assay in all cases: fluorescence anisotropy; Fluorescence anisotropy, 20 nM FAM-labelled DNA, topo VI 0 and 3.9-4000 nM, no nucleotide; buffer, salt, pH and temperature not given in supplied text
Conditions in all cases: protein: recombinant, tags: N-terminal His6-TEV on Top6B, removed, chain copies: 2;2
topo VI holoenzyme WT = molecular target: T1, topo VI holoenzyme WT (Methanosarcina mazei, UniProt Q8PUB7;Q8PUB8 1-369;1-621)
T1 sequence 1: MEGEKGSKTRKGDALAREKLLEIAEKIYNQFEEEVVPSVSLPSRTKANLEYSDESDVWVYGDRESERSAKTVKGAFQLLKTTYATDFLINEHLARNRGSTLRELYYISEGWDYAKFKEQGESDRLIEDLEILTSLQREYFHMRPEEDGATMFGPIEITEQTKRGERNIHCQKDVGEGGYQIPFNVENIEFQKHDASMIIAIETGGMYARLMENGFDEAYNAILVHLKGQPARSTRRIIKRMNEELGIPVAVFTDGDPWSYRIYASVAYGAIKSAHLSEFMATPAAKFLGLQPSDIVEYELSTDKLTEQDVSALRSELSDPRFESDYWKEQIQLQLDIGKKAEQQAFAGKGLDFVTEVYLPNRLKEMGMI
T1 sequence 2: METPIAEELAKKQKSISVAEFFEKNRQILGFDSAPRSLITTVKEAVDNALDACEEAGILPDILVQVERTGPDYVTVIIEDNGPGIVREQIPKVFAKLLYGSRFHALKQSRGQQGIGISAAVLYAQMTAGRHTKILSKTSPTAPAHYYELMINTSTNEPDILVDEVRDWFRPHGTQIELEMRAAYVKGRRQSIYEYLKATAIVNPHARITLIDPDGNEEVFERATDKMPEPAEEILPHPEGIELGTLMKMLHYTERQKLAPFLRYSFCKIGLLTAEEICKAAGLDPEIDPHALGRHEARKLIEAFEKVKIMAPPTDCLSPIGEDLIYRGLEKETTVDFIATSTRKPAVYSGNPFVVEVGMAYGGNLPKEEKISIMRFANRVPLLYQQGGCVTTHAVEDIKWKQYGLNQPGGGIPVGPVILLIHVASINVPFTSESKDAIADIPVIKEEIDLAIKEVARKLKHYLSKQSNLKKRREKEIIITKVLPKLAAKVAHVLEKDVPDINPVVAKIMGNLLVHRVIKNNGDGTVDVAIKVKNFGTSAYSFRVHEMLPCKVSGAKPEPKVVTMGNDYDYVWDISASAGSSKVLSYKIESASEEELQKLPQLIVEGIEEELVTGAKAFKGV

topo VI H2TH-AAA = molecular target: T2, topo VI H2TH-AAA (Methanosarcina mazei, UniProt Q8PUB7;Q8PUB8 1-369;1-621, R263A;K268A;K308A)
T2 sequence 1: T1 sequence 1
T2 sequence 2: T1 sequence 2 with R263A, K268A, K308A

topo VI H2TH-EEE = molecular target: T3, topo VI H2TH-EEE (Methanosarcina mazei, UniProt Q8PUB7;Q8PUB8 1-369;1-621, R263E;K268E;K308E)
T3 sequence 1: T1 sequence 1
T3 sequence 2: T1 sequence 2 with R263E, K268E, K308E

[1] = label: 5'-FAM strand 2, four-way Holliday junction, stacked-X, two GAAA-capped arms

B1: 16 x 20 bp stacked junction (structured_DNA)
DNA 1: CGAATACTCAGCTCAACCGAAAGGTTGAGCCTTCGCTCGAAAGAGCGAAGTACTCTTCCG
DNA 2: CGGAAGAGTATGAGTATTCG
With B1 the Kd (topo VI holoenzyme WT; [1]) was 122 ± 4 nM, the Kd (topo VI H2TH-AAA; [1]) was 181 ± 8 nM and the Kd (topo VI H2TH-EEE; [1]) was 90 ± 4 nM.

B2: 60 bp duplex (dsDNA)
DNA 1: CGCTTCAATAATATTGAAAAAGGAAGAGTATGAGTATTCAACATTTCCGTGTCGCCCTTC
DNA 2: GAAGGGCGACACGGAAATGTTGAATACTCATACTCTTCCTTTTTCAATATTATTGAAGCG
In the case of B2, the Kd (topo VI holoenzyme WT; label: 5'-FAM strand 1, blunt) is reported as 38 ± 2 nM, the Kd (topo VI H2TH-AAA; label: 5'-FAM strand 1, blunt) is reported as 167 ± 9 nM and the “apparent K (half saturation)” value (topo VI H2TH-EEE; label: 5'-FAM strand 1, blunt) is reported as 109 ± 3 nM.

B3: 40 bp duplex (dsDNA)
DNA 1: CTATTGAAAAAGGAAGAGTATGAGTATTCAACATTTCCGC
DNA 2: GCGGAAATGTTGAATACTCATACTCTTCCTTTTTCAATAG
With B3 the Kd (topo VI holoenzyme WT; label: 5'-FAM strand 1, blunt) was 49 ± 3 nM and the Kd (topo VI H2TH-AAA; label: 5'-FAM strand 1, blunt) was 58 ± 3 nM.

B4: 30 bp duplex (dsDNA)
DNA 1: CAAAAAGGAAGAGTATGAGTATTCAACATC
DNA 2: GATGTTGAATACTCATACTCTTCCTTTTTG
B4 was tested, and the Kd (topo VI holoenzyme WT; label: 5'-FAM strand 1, blunt) was 84 ± 6 nM and the Kd (topo VI H2TH-AAA; label: 5'-FAM strand 1, blunt) was 94 ± 4 nM.

B5: 70 bp duplex (dsDNA)
DNA 1: CCAAATGCTTCAATAATATTGAAAAAGGAAGAGTATGAGTATTCAACATTTCCGTGTCGCCCTTATTCCC
DNA 2: GGGAATAAGGGCGACACGGAAATGTTGAATACTCATACTCTTCCTTTTTCAATATTATTGAAGCATTTGG
With B5 the Kd (topo VI holoenzyme WT; label: 5'-FAM strand 1, blunt) was 62 ± 4 nM, the Kd (topo VI H2TH-AAA; label: 5'-FAM strand 1, blunt) was 180 ± 12 nM and the “apparent K (half saturation)” value (topo VI H2TH-EEE; label: 5'-FAM strand 1, blunt) was 103 ± 3 nM.

B6: 20 bp duplex (dsDNA)
DNA 1: CGGAAGAGTATGAGTATTCG
DNA 2: CGAATACTCATACTCTTCCG
Binder B6 has a Kd (topo VI holoenzyme WT; label: 5'-FAM strand 1, blunt) of 427 ± 16 nM, a Kd (topo VI H2TH-AAA; label: 5'-FAM strand 1, blunt) of 505 ± 22 nM and a Kd (topo VI H2TH-EEE; label: 5'-FAM strand 1, blunt) of 222 ± 11 nM.

— publication PMC5922973, “Topoisomerase VI senses and exploits both DNA crossings and bends to facilitate strand passage” (eLife, 2018)
